Assay results taken from patent US20260256870A1, “SKIN COMPOSITION” (Eaderm Co., Ltd., priority 2019, published 2026).

Key:
COL17A1 = COL17A1 expression in human epidermal keratinocytes by high content imaging (HCS); assay type: cell-based; settings: Table 1; human epidermal keratinocytes, 48 hours after addition of reagents, fluorescence intensity per cell
Description: The present inventors further searched for substances that induce or maintain the expression of COL17A1. Human epidermal keratinocytes were seeded in 384-well plates, cultured for 48 hours after addition of reagents, immunostained with an anti-COL17A1 antibody and a fluorescently labeled secondary antibody, and then the fluorescence intensity per cell was detected using a high content imaging system (HCS: High Content Screening). In addition to cell counting with DAPI, the expression level of COL17A1 was quantified.

[1] = tested on: human epidermal keratinocytes; assay: Colony formation assay using human epidermal keratinocytes; assay type: cell-based; settings: Table 1
Source text: To test whether COL17A1-mediated SCD maintains clonal proliferation of epidermal stem cell clones, the present inventors used a colony formation assay, which is an in vitro assay said to be the gold standard for assessing the self-renewal ability of epidermal stem cells, including cells in the tail epidermis.

B1: Epidermal Growth Factor (EGF): growth factor (protein, UniProt P01133 23-1207, looked up)
Pro-epidermal growth factor: PQHWSCPEGTLAGNGNSTCVGPAPFLIFSHGNSIFRIDTEGTNYEQLVVDAGVSVIMDFHYNEKRIYWVDLERQLLQRVFLNGSRQERVCNIEKNVSGMAINWINEEVIWSNQQEGIITVTDMKGNNSHILLSALKYPANVAVDPVERFIFWSSEVAGSLYRADLDGVGVKALLETSEKITAVSLDVLDKRLFWIQYNREGSNSLICSCDYDGGSVHISKHPTQHNLFAMSLFGDRIFYSTWKMKTIWIANKHTGKDMVRINLHSSFVPLGELKVVHPLAQPKAEDDTWEPEQKLCKLRKGNCSSTVCGQDLQSHLCMCAEGYALSRDRKYCEDVNECAFWNHGCTLGCKNTPGSYYCTCPVGFVLLPDGKRCHQLVSCPRNVSECSHDCVLTSEGPLCFCPEGSVLERDGKTCSGCSSPDNGGCSQLCVPLSPVSWECDCFPGYDLQLDEKSCAASGPQPFLLFANSQDIRHMHFDGTDYGTLLSQQMGMVYALDHDPVENKIYFAHTALKWIERANMDGSQRERLIEEGVDVPEGLAVDWIGRRFYWTDRGKSLIGRSDLNGKRSKIITKENISQPRGIAVHPMAKRLFWTDTGINPRIESSSLQGLGRLVIASSDLIWPSGITIDFLTDKLYWCDAKQSVIEMANLDGSKRRRLTQNDVGHPFAVAVFEDYVWFSDWAMPSVMRVNKRTGKDRVRLQGSMLKPSSLVVVHPLAKPGADPCLYQNGGCEHICKKRLGTAWCSCREGFMKASDGKTCLALDGHQLLAGGEVDLKNQVTPLDILSKTRVSEDNITESQHMLVAEIMVSDQDDCAPVGCSMYARCISEGEDATCQCLKGFAGDGKLCSDIDECEMGVPVCPPASSKCINTEGGYVCRCSEGYQGDGIHCLDIDECQLGEHSCGENASCTNTEGGYTCMCAGRLSEPGLICPDSTPPPHLREDDHHYSVRNSDSECPLSHDGYCLHDGVCMYIEALDKYACNCVVGYIGERCQYRDLKWWELRHAGHGQQQKVIVVAVCVVVLVMLLLLSLWGAHYYRTQKLLSKNPKNPYEESSRDVRSRRPADTEDGMSSCPQPWFVVIKEHQDLKNGGQPVAGEDGQAADGSMQPTSWRQEPQLCGMGTEQGCWIPVSSDKGSCPQVMERSFHMPSYGTQTLEGGVEKPHSLLSANPLWQQRALDPPHQMELTQ
modifications: Pro-epidermal growth factor
COL17A1
  COL17A1 expression level (control ratio): ⊚ (one double circle (⊚) represents a 1.2-fold or greater increase)
[1]
  Colony area (control ratio): ⊚⊚ (Two double circles (⊚⊚) in the control ratio of the colony number or colony area indicates an increase of 1.2-fold or more)
  Colony number (control ratio): ⊚⊚ (Two double circles (⊚⊚) in the control ratio of the colony number or colony area indicates an increase of 1.2-fold or more)
